Data: paper PMC10998906

Key:
[1] = target: HA GCN4 (NL03 HA fused to a GCN4 trimerization domain) (influenza A virus A/Netherlands/213/2003(H3N2)); assay: SEC
[2] = target: HA GCN4 (NL03 HA fused to a GCN4 trimerization domain) (influenza A virus A/Netherlands/213/2003(H3N2)); assay: negative-stain EM

Work on “HA GCN4 (NL03 HA fused to a GCN4 trimerization domain) (domain or fragment)” yielded a stoichiometry N [1] of 3 and a stoichiometry N [2] of 3.
